Kd data for two substances are collected here from PMC6881179.

Experiment in all cases: SPR
(In general: Surface plasmon resonance follows binding to a sensor surface in real time, without labels.)

Assay [1] addresses BES17 transferrin receptor (glycosylated heterodimer of BES17 ESAG6 and BES17 ESAG7) (Trypanosoma brucei) (UniProt Q8WPU1).
Assay [2] addresses BES17e6BES1e7 chimera (BES17 ESAG6 with BES1 ESAG7) (Trypanosoma brucei) (UniProt Q8WPU1).
Assay [3] deals with BES1e6BES17e7 chimera (BES1 ESAG6 with BES17 ESAG7) (Trypanosoma brucei) (UniProt Q8WPU1).
For assay [4], the target named is BES1 transferrin receptor (glycosylated heterodimer of BES1 ESAG6 and BES1 ESAG7) (Trypanosoma brucei) (UniProt Q8WPU1).

As to “human holo-transferrin (from UniProt P02787 20-698) (ligand)”, the Kd (as a rule, a measure of binding affinity in units of concentration) in assay [1] is 13.1 nM; in assay [2], 353 nM; in assay [3], 243 nM.

In assay [4], “cow transferrin (from UniProt Q29443 20-704) (ligand)” gave a Kd of 80.1 nM.
